No end group written: not given here. *: point of attachment. FITC = O=C1OC2(c3ccc(O)cc3Oc3cc(O)ccc32)c2ccc(NC(=S)*)cc21
T1: TRIB1(84–372) (human, UniProt Q96RU8 84-372)
T1 sequence (looked up): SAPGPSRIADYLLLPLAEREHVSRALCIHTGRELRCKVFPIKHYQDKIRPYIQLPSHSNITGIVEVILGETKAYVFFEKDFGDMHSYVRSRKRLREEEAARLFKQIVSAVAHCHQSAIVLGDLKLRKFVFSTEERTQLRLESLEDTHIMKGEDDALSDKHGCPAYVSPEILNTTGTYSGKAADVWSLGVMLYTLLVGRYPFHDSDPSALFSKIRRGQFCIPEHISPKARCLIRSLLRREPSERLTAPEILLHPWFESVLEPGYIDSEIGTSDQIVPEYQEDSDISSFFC

T2: GST-TRIB1(84–372) S240W (human, UniProt Q96RU8 84-372, S240W)
T2 sequence (looked up): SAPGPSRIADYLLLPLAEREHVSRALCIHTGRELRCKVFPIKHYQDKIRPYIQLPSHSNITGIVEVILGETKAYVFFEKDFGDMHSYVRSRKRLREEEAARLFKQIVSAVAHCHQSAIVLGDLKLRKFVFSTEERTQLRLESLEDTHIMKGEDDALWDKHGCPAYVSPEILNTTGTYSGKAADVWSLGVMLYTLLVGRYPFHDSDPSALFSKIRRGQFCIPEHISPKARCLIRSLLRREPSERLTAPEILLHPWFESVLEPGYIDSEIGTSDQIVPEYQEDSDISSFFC

T3: GST-TRIB1(84–372) wild type (human, UniProt Q96RU8 84-372)
T3 sequence (looked up): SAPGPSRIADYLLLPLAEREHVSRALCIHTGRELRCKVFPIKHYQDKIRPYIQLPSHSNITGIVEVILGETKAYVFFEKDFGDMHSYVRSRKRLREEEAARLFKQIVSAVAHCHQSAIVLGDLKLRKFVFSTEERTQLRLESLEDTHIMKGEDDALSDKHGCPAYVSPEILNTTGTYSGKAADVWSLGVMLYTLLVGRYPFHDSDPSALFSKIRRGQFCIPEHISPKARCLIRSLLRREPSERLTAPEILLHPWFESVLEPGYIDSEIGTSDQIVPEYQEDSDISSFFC


Legend:
[1] = biological target: T1, TRIB1(84–372); assay: differential scanning fluorimetry
[2] = biological target: COP1 WD40 domain (376–731) (UniProt Q8NHY2 376-731); assay: fluorescence polarisation
Sequence of COP1 WD40 domain (376–731) (Q8NHY2 376-731): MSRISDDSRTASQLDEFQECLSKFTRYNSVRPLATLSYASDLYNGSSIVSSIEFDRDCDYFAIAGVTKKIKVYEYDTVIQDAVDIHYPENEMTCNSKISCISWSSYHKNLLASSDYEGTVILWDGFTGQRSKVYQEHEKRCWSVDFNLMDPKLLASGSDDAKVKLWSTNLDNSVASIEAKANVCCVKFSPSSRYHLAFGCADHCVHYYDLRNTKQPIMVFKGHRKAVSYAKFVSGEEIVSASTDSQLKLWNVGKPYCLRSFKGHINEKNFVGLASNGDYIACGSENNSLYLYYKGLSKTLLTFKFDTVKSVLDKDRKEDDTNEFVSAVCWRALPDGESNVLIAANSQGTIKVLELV

[3] = biological target: T1, TRIB1(84–372); assay: ITC
[4] = biological target: T2, GST-TRIB1(84–372) S240W; assay: pull-down
[5] = biological target: T3, GST-TRIB1(84–372) wild type; assay: pull-down

| Binder | binding result [2] | binding result [3] | also measured |
| --- | --- | --- | --- |
| GGICEHETSIDISAYIDPAAFND (peptide, UniProt P49715 53-75, looked up) [C/EBPα degron peptide (53 to 75)] | – | – | binding result [1]: binds |
| {FITC}-SEIGTSDQIVPEYQEDSDI (peptide, UniProt Q96RU8 349-367, looked up) [FITC-TRIB1(349–367)] | binds | – | – |
| SEIGTSDQIVPEYQEDSDI (peptide, UniProt Q96RU8 349-367, looked up) [TRIB1 peptide (residues 349 to 367)] | binds | – | – |
| GDMCEHEASIDLSAYIESGEEQL (peptide, UniProt Q15744 31-53, looked up) [C/EBPε(31–53) fused to MBP] | – | binds | – |

More lines, main results first:

| binding result [2] | binding result [3] | Binder | also measured |
| --- | --- | --- | --- |
| – | binds | PAMYDDESAIDFSAYIDSMAAVP (peptide, UniProt P49716 50-72, looked up) [C/EBPδ(50–72) fused to MBP] | – |
| – | binds | GGICEHETSIDISAYIDPAAFND (peptide, UniProt P49715 53-75, looked up) [His6MBP-C/EBPα(53–75)] | binding result [4]: binds; binding result [5]: binds |
